This note sets out measurements from a protein production outcome set (Wang et al. 2014).

A short description of the data set: label from the status in PepcDB records.
Take “MKAADEPAYLTVGTDVSAKYRGAFCEAKIKTVKRLVKVKVLLKQDNTTQLVQDDQVKGPLRVGAIVETRTSDGSFQEAIISKLTDASWYTVVFDDGDERTLRRTSLCLKGERHFAESETLDQLPLTNPEHFGTPVIAKKTNRGRRSSLPVTEDEKEEESSEEEDEDKRRLNDELLGKVVSVVSATERTEWYPALVISPSCNDDITVKKDQCLVRSFIDSKFYSIARKDIKEVDILNLPESELSTKPGLQKASIFLKTRVVPDNWKMDISEILESSSSDDEDGPAEENDEEKEKEAKKTEEEVPEEELDPEERDNFLQQLYKFMEDRGTPINKPPVLGYKDLNLFKLFRLVYHQGGCDNIDSGAVWKQIYMDLGIPILNSAASYNVKTAYRKYLYGFEEYCRSANIQFRTVHHHEPKVKEEKKDLEESMEEALKLDQEMPLTEVKSEPEENIDSNSESEREEIELKSPRGRRRIARDVNSIKKEIEEEKTEDKLKDNDTENKDVDDDYETAEKKENELLLGRKNTPKQKEKKIKKQEDSDKDSDEEEEKSQEREETESKCDSEGEEDEEDMEPCLTGTKVKVKYGRGKTQKIYEASIKSTEIDDGEVLYLVHYYGWNVRYDEWVKADRIIWPLDKGGPKKKQKKKAKNKEDSEVDEKRDEERQKSKRGRPPLKSTLSSNMPYGLSKTANSEGKSDSCSSDSETEDALEKNLINEELSLKDELEKNENLNDDKLDEENPKISAHILKENDRTQMQPLETLKLEVGENEQIVQIFGNKMEKTEEVKKEAEKSPKGKGRRSKTKDLSLEIIKISSFGQNEAGSEPHIEAHSLELSSLDNKNFSSATEDEIDQCVKEKKLKRKILGQSSPEKKIRIENGMEMTNTVSQERTSDCIGSEGMKNLNFEQHFERENEGMPSLIAESNQCIQQLTSERFDSPAEETVNIPLKEDEDAMPLIGPETLVCHEVDLDDLDEKDKTSIEDVAVESSESNSLVSIPPALPPVVQHNFSVASPLTLSQDESRSVKSESDITIEVDSIAEESQEGLCERESANGFETNVASGTCSIIVQERESREKGQKRPSDGNSGLMAKKQKRTPKRTSAAAKNEKNGTGQSSDSEDLPVLDNSSKCTPVKHLNVSKPQKLARSPARISPHIKDGEKDKHREKHPNSSPRTYKWSFQLNELDNMNSTERISFLQEKLQEIRKYYMSLKSEVATIDRRRKRLKKKDREVSHAGASMSSASSDTGMSPSSSSPPQNVLAVECR”: the protein production result is “not failed”.
On to “MTDPSQMQAEELLSFLEEGGTLKMLHDVSADTIEHIYAVGYNFFQSGKIEQAAKVFQLLSMLDHYQARFFIGLGAARQELGEYLQAIDAYSYAALVDINDPRPPFHSAECHLKLEQLTEAESGFYSAKEMSAGKSQYADLHQRAGIMLEAVRNKRSNLEHHHHHH”, for which the protein production entry was “not failed”.
As for “MKYRQWVLGAGFTLSVGLSSVAHAFSIPQPANEIAASKFVHIQVQAEQGDADAQFLLGLMFLSGRYVQQEVPSGLHWITLAAEQQHEKAQQTLADLSFEGQLIKRDLAVAERWYKDMGERGNRWAQFRLGFIYASGGDGVKRNCGKAVEQFTRVGDDIALGNVAWILATCPEAEYRDGNKALELSLQLLKVNENDPTNLDNLAAAYAEVGDFGAAVSTQQKAIAALKMTAEATKTDEFKQRLHSYEQKRAYRETLRLLE”, the protein production entry is on record as “failed”.
For “MSNVIASLEKVLLPFAVKIGKQPHVNAIKNGFIRLMPLTLAGAMFVLINNVFLSFGEGAFFYSMGIRLDASTIETLNGLKGIGGNVYNGTLGIMSLMAPFFIGMALAEERKVDALAAGLLSVAAFMTVTPYSVGEAYAVGANWLGGANIISGIIIGLVVAEMFTFIVRRNWVIKLPDSVPASVSRSFSALIPGFIILSIMGIIAWALSNYGSNFHQIIMDTISTPLASLGSVVGWAYVIFVPLLWFFGIHGSLALTALDSGIMTPWALENISIYQQYGSVDAALEAGKTFHIWAKPMLDSYIFLGGSGATLGLIIAIFLASRRADYRQVAKLALPSGIFQINEPILFGLPIIMNPVMFIPFILVQPILAAITLVAYYLGIIPPITNIAPWTMPTGLGAFFNTNGSVAALLVALFNLAVATLIYLPFVVVANKAQNAIEQEESEEDIANALKF”, the protein production result was “not failed”.
“MDTMDTLRAFLRVAELGSFTRAAETLGLPKASVSTAVQRLEASLGTQLLHRTTRRVQLTADGTAFYQRSRDLLDDMDELQGMFQRDHSQLRGRLRVDMSAGIARQFVIPALPAFLAQHPQLEIEISGTDRRVDLVREGFDCVLRVGTVEDTSLVGRPLGVLRIINVASAQYLAQRGVPQTLEDLAQHDLVHYVSTLGQRSPGFEYHDGAQYHWLPMRGPVTVNNGDAYLAAARAGLGIIQAPASPLQAHLDSGVLVEVLAQMAPEPMPVTLLYAQRRHLPQRVRLFMDWIAQVMAPHLEPHLP”: the protein production result is listed as “failed”.
With “MKIYFEAYGCTLNQGETALYVNKLLNEGNTLVSNPKEADLSIIGTCAVIKKTEDHMMARIQNLSRFGKVEVIGCLAPVKGKTMVEDNVSVIEKDRFRSFQEVIDEVSPVNAEIVSGIPINQGCTGKCNFCVSHIARGKLVSRKPEKIAGQIKILLQRGIKEIKITSLDTAAYGKDIGLRLPHLIRTITEIGDDFRLRVGMMEPKNTLEIVDDLISAYRSEKVFKFLHLPVQSGDDYVLEVMNREYTVSDFIRITGKFREAFPDSTLSTDLIIGYYAENDDSFEKTVQLIEKIRPEIINVTKFSPRELTADFEKRPKPTNILKEQDRMIADMHKEILQEKFSNLIGKTEFVLITENGKGRSMIGRDHAYRPIVIMDKTRKFEFHQVEITGFENTSLIGRIIDLEHHHHHH” the entry was “failed”; with “MKKKNILFFLLCFLLTSLSAQTLEQARGMYGRGQYAEAKPVFQKYVKSQPANGNYNLWYGVCCLKTGNAAEALKYLETAVKKRIPSGQLYLAQTYNDLYRFQDAVDCYEEYIADLSKRKKPTEEAEQLLEKAKGNLRMLKGVEDVCVIDSFVIDKANFLKAYKISEESGKLFTYNDYFKTKGYHPGTVYETEIGNRIYYSEQGEESLNILSKTKMLDEWSQGKPLPGSINASGNANYPYVLSDGVTIYYASDGDGSMGGYDIFVTRYNTNTDTYLVPENVGMPFNSPYNDYMYVIDEYNNLGWFASDRYQPEDKVCIYVFVPNDSKRTYNYEAMEPEKMIELAQLHSLESTWKDSKIVDDARQRLEAVINHKPAVEQNFDFEFIIDDHSTYHHLTDFKSPKAKQLYLKYEQMEKDYRQQTGKLKSQREGFARSNKDEQSKMAPAIRDLEKRVLQMSEELDKQAIEVRNAEKQNLK”, “failed”; with “MSELVRKLSGTAPNPAFPRGAVDTQMHMYLPGYPALPGGPGLPPGALPGPEDYRRLMQWLGIDRVIITQGNAHQRDNGNTLACVAEMGEAAHAVVIIDATTTEKDMEKLTAAGTVGARIMDLPGGAVNLSELDAVDERAHAADWMVAVQFDGNGLLDHLPRLQKIRSRWVFDHHGKFFKGIRTDGPEMAALLKLIDRGNLWFKFAGVYESSRKSWPYADVAAFSRVIAAHAPERIVWGTNWPHNSVRETAAYPDDARLAELTLGWLPDEAARHRALVENPEALFKLSPVKAT”, “failed”.
For the sequence “MNAVLVAVAIMLLLSLLRVQVIVAIIVGALTGGLIGGLGISETINTFTTGLGNSAPIALSYAMLGGFAISLSKTGLPDAMIQTALKWIGNEQDTKKQVYSKILILFIILTMACFSQNVIPVHIAFIPILIPALLKVLNELRVDRRLVTCIITFGLITPYMWIPAGFGKIYHDVLQTNAAQSGLTFDVTLIPKAMTIPAIGMIIGLCVAVFITYRKPRTYETEQIHTTENEIVPYTKRSITFGLLSIIATLTVQLTTESMIFGALAGIIVLSVSGSLPLKEADAILTSGMRMMSFIGFVMIAAAGFGAVLRKTGHVESLVQTSAHIIGNNKPLAAFLMLVIGLLVTMGIGSSFSTIPILTTIFVPLCIQLGFSPMATIAIIGTAGALGDAGSPASDSTLGPTSGLNADGQHHHIWDTCVPTFLHYNIPLLIFGFIAAITL”, the protein production result is “failed”.
Under “MKSAVEQLSTYKSVHLNPRNIQTHFIGIPLIIWSAFLLFATIRIPLGDADNVNLGMILAIGIMLYYLRLHAKLALGLALFLAPVIYTTELVAHSENAFGLAITVFIVGWIFQLIGHRYEKAKPAFVDDLNQLLIGPFFLMAEVYFMLGLEKQLNAEITPIAIEKRRALEAHLKTK” stands “failed”.
In the case of “MHPALVLAAIALIAIKLDPRFVLGLLVLLTLIYGKKRGFSLKLRNVTEDESYFNAFLFSTILSALSCFSLPKDVVFASIFLISVHNYRKNALWNIAVYTTASLLYFLCYHAVNGVELRLAHTFFISLSGGLTAALVESVDTNADRRLTLLLAISSVFTIFKMYVPSASIYSLAFAFLLSFFVSLLALYAKVADESGLMSATIVGTTLILFADIRFFAVILLFYALGSAITKYKYSVKLERGIAEQAGGARGYANVFGNSLAPLFFAVQFGVSGDAIFAAAFVAAVAAALADTMASEIGKAEEKVYLITNFSRVEPGTSGGISVKGEFAALFGCIVTALLSLLLGIIGFDVLLPVTLSAFAGVHIDSLLGATLEKKGYLTNSAVNFLGTLSAGIICVLLLLPLL”, the protein production result is “failed”.
As to “MGNHKAALTKQVFTFASELYAYGVREVVISPGSRSTPLALAFEAHPNIKTWIHPDERSAAFFAVGLIKGSERPVAILCTSGTAAANYTPAIAESQISRIPLIVLTSDRPHELRSVGAPQAINQVNMFNNYVSYEFDMPIADDSKETINAIYYQMQIASQYLYGPHKGPIHFNLPFRDPLTPDLNATELLTSEMKILPHY”, the protein production result was “failed”.
Regarding “LLHRTFMADAGWSDLKAFEVILRHIPHDAALHAANSTPVRYLQLFEHAHYAGGEWSNRGTNGIEGATSTAMGFSEVYSGTTLLITGDLSFMYDSNALWMPYVNGRIRVIVMRNGGGGIFRFIPGPDSLKELETCFETPLEVPVREMAGAYGWRYMKAVSAEELETVLPSFFASGDRAVLLEVETPRFENAPVLKSYFTYISGESYPVNR”, the protein production entry is recorded as “failed”.
“WRKDIVLPKDQAKGVRPYNPKFKDSEYFSRYNALINDERLIEFAKKNNYKITFFPHPDIQQQIVDFEKHDYVEFADYNSSYQMLFNSSNIMITDFSSVAFDFAYEKKPVIYYQYEKSYHFKLDYYDYKKMGFGDVLENHNSLVDKVIYYMKNNSRMEDKYRKRVDNFFAYTDKNNRNRIYNAILE”: the protein production entry is “not failed”.
With “TVVNDPSCESVVTTPQHSLRDANSPAGLLSIAEETLAEFLSKATGTAVDWVQMPGMKPGPDSVGIFAISQRCNGVAARACGLVSLEPMKIAEILKDRPSWFRDCRSLEVFTMFPAGNGGTIELVYMQTYAPTTLAPARDFWTLRYTTSLDNGSFVVCERSLSGSGAGPNAASASQFVRAEMLSSGYLIRPCDGGGSIIHIVDHLNLEAWSVPDVLRPLYESSKVVAQKMTISALRYIRQLAQESNGEVVYGLGRQPAVLRTFSQRLSRGFNDAVNGFGDDGWSTMHCDGAEDIIVAINSTKHLTNISNSV” the entry was “not failed”; with “MSLPANQIKEPGKQFQPAKSLKEPSQESLPGNLLKEPSQESRILCPDPDIVVELNVGGQFYTTTMGTLMKHPGSKFSEILSRSAKHYKDAQGRFFIDRPGTYFGPLLDYLRTGQVPTEYIPEVYQEAKFYQIHPLVKLLEDKPQIFGEQVARMQFLMGVPNYRENLEVLLHLARAEAVAMRSSKVVVCVVRTEEDDAKCTEPLHILEAKKTPVVKFGPWKAGPVTEDFVYCLEKDIRAKGYTVASQRYHLSRDPYTCFWILVFTWW”, “failed”.
For the sequence “MFLNRKVELSLLENLHAEGKPKLILLYGKRRVGKTELLNEFARRHRALYLVARQEAYEGQLKKMSSEIAEFFDDDVLRHSPFQNYDALFIYLAQKETPVLFDEFPYLVEANRDLPSILQEYWDRYFSKKKTFLVLCGSSIAMMESLLGYKSPLYGRRTEQILLEPLKFREACEFFPQLEQEDKVLAYAVLGGTPAYLLEFDYGKPLLENIRDRILQKNTFLYQDTMFVLQQELTEPRVYYSIINSIAKGNTRLGEIMNDTGLEKSKITKYLSVLKDLHIIERRVPVTEKSPESSKKGIYLLKDNYFKFWFRFVFENAEYIEQGRQEKLIGDKISPVLNNFAGFAYEEIVLEYLKSSPGFPDYIFGRWWDKEEEIDVVGLDSSQNRIIFGEVKWKALTEKEARQTLNQLVEKSVEVKWGENLKSGEIQEGPEKKYMLVGKKVGGKKRLLGDGYLVLELDDLVEN”, the protein production result is on record as “failed”.
